Measured values published in patent US20250326823A1.

Assays:
[1] = biological target: SARS-CoV-2 spike (S) protein, WA1 (SARS-CoV-2) (UniProt P0DTC2); assay: cell-based or functional assay
[2] = biological target: SARS-CoV-2 WA1 spike (S) protein (SARS-CoV-2) (UniProt P0DTC2); assay: cell-based or functional assay

Substance	neutralization IC50 [1] [nM]	neutralization IC80 [1] [nM]	pseudovirus neutralization IC50 [2] [µg/mL]	IC50, pseudovirus neutralization [1] [nM]	IC80, pseudovirus neutralization [1] [nM]
ADG20 (antibody)	0.047	0.197			
AZD3152 (antibody)			0.161	1.08	2.2
